Measurements: patent publication US20060210570A1

Biological target: prostasin (recombinant human, soluble, active two-chain form purified from conditioned medium of CHO cells transfected with full-length prostasin) (human) (UniProt Q16651)
Test: cell-based or functional assay

Row | Substance | IC50 (nM), inhibition of prostasin amidolytic activity towards S2765 [nM]
1 | Alzheimer's amyloid β protein precursor inhibitor (APPI) (from UniProt P05067 287-344) | > 1000
2 | sHAI-1 (obtained from R & D Systems, Inc.) (from UniProt O43278 36-449) | 109
3 | sHAI-1B wildtype (soluble hepatocyte growth factor activator inhibitor-1B, entire extracellular domain) (from UniProt O43278 36-465) | 66
